Columns and labels:
sperm [1] = test: Weighted acrosome scoring of fluorescence-stained sperm morphology types; type: cell-based, human; details: for % of Type I (intact acrosome): column drawing 1; for % of Type II (damaged acrosome): column drawing 2; for % of Type III (equatorial segment): column drawing 3; for % of Type IV (no fluorescence in head): column drawing 4
Source text: A representative example of this method is as follows. […] (See Arts et al, 1994 for further details useful for this example).
In a second step, each type is given a score. In this example, Type I has fluorescence in the acrosomal region, indicating intact acrosome; Type II has fluorescence in a clearly damaged acrosome; Type III has fluorescence in the equatorial segment; and Type IV has no detectable fluorescence in the head. Each type, in the representative example is given a score as follow. Type I has 0 points, Type II has 1 point, Type III has 1.5 points and Type IV has 2 points. Of course different numbers of types may be scored and different weighting systems may be used, depending on knowledge of the system used and the conditions and reagents used for scoring each type. In this example, the sperm are examined under a fluorescence microscope and the percentage of each category is recorded. To determine the total AR score, the percentage of each category type is multiplied by the appropriate point and added together as shown in the equation below and in […]

sperm [2] = test: Percentage of acrosome-reacted sperm as determined by FITC-PSA; type: cell-based, human; details: NT 30 ng/ml, calcium ionophore 5 μM, rhZP3 30 ng/ml, solubilized zona 0.5 ZP/μl, Mean (±SEM); for % Acrosome reacted-sperm: n = 29 ejaculates
Source text: The acrosome reaction was studied in response to purified rhZP3, natural solubilized human ZP and the calcium ionophore.

human sperm [3] = test: Acrosome reaction by rhZP3 after sperm capacitation time course; type: cell-based; details: 30 ng/mL, 4 hours capacitation
Method: The time course study of sperm capacitation in combination with rhZP3 was evaluated. After different periods of capacitation, sperm were treated with rhZP3 (30 ng/ml) for thirty minutes to trigger the acrosome reaction. […] In many embodiments with rhZP3 an approximate 4 hour capacitation time is preferred because at this time frame the sperm are 99% alive as compared to 86%, 82% and 66% of live sperm for 8, 12 and 24 hours of capacitation time respectively. Experiments were performed after 4 hours of capacitation. The ratio of acrosome-reacted spermatozoa increased by 1.5 fold, after incubation with 30 ng/mL rhZP3, as compared to controlled conditions. This increased activity is much stronger than the increased activity produced after incubation with rhZP3 made by CHO cells. The CHO cell product induced a similar percentage of acrosome reaction in human sperm following 24-hour sperm capacitation at a dose of 15–20 ng/μl (van Duin et al, 1994).

human sperm [4] = details: 30 ng/mL; cited from earlier work
[5] = test system: sperm-zona pellucida binding; details: hemizona assay; cited from earlier work
[6] = test system: sperm-zona pellucida binding; test: Hemizona assay, inhibition of sperm-zona pellucida binding; type: cell-based, human
Source text: Isolation and purification procedures A wide variety of isolation and purification procedures for ZP3, ZP2, ZP1 as whole proteins, glycosylated fragments, complexes, conjugates and as fusion proteins may be used in embodiments of the invention. […] Furthermore, data were obtained that establish the ability of rhZP3 to induce the sperm acrosomal reaction. […] Each of the techniques most preferably uses a human glycosylated ZP3 and/or ZP2 and/or ZP1.
This procedure was used to evaluate recombinant human ZP3 as described above.
The hemizona assay is employed as a parallel assay to evaluate the binding ability of GFP-rhZP3 coated agarose beads. An aliquot of semen is processed as described above. Both sperm and artificial zona are processed as described above. For each hemizona pair, the HZI was calculated as follows: (number of test sperm bound to the hemizona/number of fertile sperm bound to hemizona)×100. […]
A hemizona assay is to be carried out as a parallel assay to evaluate the binding ability of GFP-rhZP3 coated agarose beads. […] After capacitation, sperm sample are ready for use in a HZA. […] The number of sperm tightly bound to the outer surface are counted. For each hemizona pair, the HZI is calculated as follows: (number of test sperm bound to the hemizona/number of fertile sperm bound to hemizona)×100 (Burkman, et al.,1988). […]

Row | Molecule | AR percentage (sperm [1]) | Score Type I (0 × %) (sperm [1]) | Score Type II (1 × %) (sperm [1]) | Score Type III (1.5 × %) (sperm [1]) | Score Type IV (2 × %) (sperm [1]) | Total AR score (sperm [1]) | % of Type I (intact acrosome) (sperm [1]) | % of Type II (damaged acrosome) (sperm [1]) | % of Type III (equatorial segment) (sperm [1]) | % of Type IV (no fluorescence in head) (sperm [1]) | % Sperm viability (sperm [2]) | % Acrosome reacted-sperm (sperm [2]) | increase of ratio of acrosome-reacted spermatozoa compared to control conditions (human sperm [3]) | live acrosome-reacted sperm (human sperm [4]) | minimally effective dose for sperm-zona pellucida binding inhibition [5] | hemizona index, in words [6]
1 | CNc1ccc2oc(C[C@H]3O[C@@]4(CC[C@H]3C)O[C@H]([C@H](C)C(=O)c3ccc[nH]3)[C@H](C)C[C@H]4C)nc2c1C(=O)O [Calcium ionophore, reference compound] | 32% | 0 | 7 | 27 | 30 | 64 | 60% | 7% | 18% | 15% | 96.5 (2.0) % | 22.5% | – | – | – | –
2 | rhZP3: recombinant human zona pellucida protein 3 made by human ovarian cell line PA-1, correctly glycosylated (protein, listed as Homo sapiens, recombinant, glycosylated, made in PA-1 cells, recombinant human zona pellucida protein 3 made by human ovarian cell line PA-1, correctly glycosylated) MELSYRLFICLLLWGSTELCYPQPLWLLQGGASHPETSVQPVLVECQEATLMVMVSKDLFGTGKLIRAADLTLGPEACEPLVSMDTEDVVRFEVGLHECGNSMQVTDDALVYSTFLLHDPRPVGNLSIVRTNRAEIPIECRYPRQGNVSSQAILPTWLPFRTTVFSEEKLTFSLRLMEENWNAEKRSPTFHLGDAAHLQAEIHTGSHVPLRLFVDHCVATPTPDQNASPYHTIVDFHGCLVDGLTDASSAFKVPRPGPDTLQFTVDVFHFANDSRNMIYITCHLKVTLAEQDPDELNKACSFSKPSNSWFPVEGPADICQCCNKGDCGTPSHSRRQPHVMSQWSRSASRNRRHVTEEADVTVGPLIFLDRRGDHEVEQWALPSDTSVVLLGVGLAVVVSLTLTAVILVLTRRCRTASHPVSASE | 29% | 0 | 12 | 33 | 14 | 59 | 59% | 12% | 22% | 7% | – | 18.3% | 1.5 fold | 19%±4.1% | 30 ng/mL | dramatically decreasing the hemizona index

— patent US7148021B2, “Human zona pellucida proteins and methods of their use in diagnosing male infertility” (Eastern Virginia Meical School, priority 2001, dated 2006)
